Experimental data: the DeepSol protein solubility set

Experiment: soluble on expression in E. coli; label from the status in PepcDB or PDB records

Sequence | soluble on expression in E. coli
MIRSTVLILASFALAVNCYECMNNTVVINAPSDISKPVFYPDGWDGQSSTPQISENQQCVMTINVPTGYYATVTFYKHFTEPGGYLYFPSRKIELLQNDDYNPYIFPSPMVKINIGTDNRNDVMNQFGFKVVYSKYPTLEKNIINIDLGSPPVAAKPSEKLTTFVGDRNSMMSLMGFTMADNSKNYLLRQTAIFGGDSTDSTYIGSLSQILNSQQILTTYGNKISVYTFGLDKLIDYPLFMGQNQVDTMGLLKYNGANCPSTGNCNVTLNGNWGAHVVVVTSYDGPETIKSFDSFPDTGVLNVYENNVSNTTCIATLNKFNYLQQLPLQVNGNMKFYELRAGGVYNMVVTRDTSRASRHQI | not soluble
MGSDKIHHHHHHMKKIAVLTSGGDAPGMNAAVRAVVRYGVRQGLEVIGVRRGYSGLIDGDFVKLEYKDVAGITEKGGTILRTSRCEEFKTEEGRELAAKQIKKHGIEGLVVIGGEGSLTGAHLLYEEHKIPVVGIPATIDNDIGLTDMCIGVDTCLNTVMDAVQKLKDTASSHERAFIVEVMGRHSGYIALMAGLVTGAEAIIVPEIPVDYSQLADRILEERRRGKINSIIIVAEGAASAYTVARHLEYRIGYETRITILGHVQRGGSPTAFDRRLALSMGVEAVDALLDGEVDVMIALQGNKFVRVPIMEALSTKKTIDKKLYEIAHMLS | not soluble
VIHVTKEVKEVATLSCGHNVSVEELAQTRIYWQKEKKMVLTMMSGDMNIWPEYKNRTIFDITNNLSIVILALRPSDEGTYECVVLKYEKDAFKREHLAEVTLSVKADFPTPSISDFEIPTSNIRRIICSTSGGFPEPHLSWLENGEELNAINTTVSQDPETELYAVSSKLDFNMTTNHSFMCLIKYGHLRVNQTFNWNTAK | soluble
MNLFFDTELGKQQNKATHKIRVMSEAWLEKNGYCPCCGSKPMQRFANNKPVADLFCPNCHEQYELKSKNQKTIGNSVPDGAYHTMLERIRSDTNPNFFFLAYKKADYSIRQLVLVPKHFITPDMIIPRNKGIKNRPNHIMCSINLAPLPESGKIFLIDNSRIIEPETVLKKWQSNLFLRNQNAERKGWLLAVMKCIDQLPEEFTLSQMYEFENKLSIQFPQNNHIRDKIRQQLQILRDQNTIEFIGRGLYKKS | not soluble
MPPFKRTKIVATLGPATDDKEVIRALAEAGADVFRLNFSHGAPEDHRRRVGWVREVAEELGRTLAVLQDLQGPKIRVGRFREGQVLLRPGQRFVLTAEPVEGDEHRVSVSYKGLPEDVSPGQILLLDDGRIRLKVLEVRSPEILTEVEVGGVLSNNKGINIPGADLSIPALSEKDIQDLALGAELGVDWVAVSFVRTRDDLLLARHYLSRYGSKARLMAKIEKPSAVARFEEILEEADGIMVARGDLGVEMPLEEVPIVQKRLILRCIAAGKPVITATQMLESMVQNPSPTRAEASDVANAIFDGTDAVMLSAETAAGAYPVEAVAMMARIAKAVESSPEFLQKLNVLRPAPTPTTQDAIAQAADDVVEAVGARAIVVFTATGGSARRIARTRPQVPILALTPNPEVRNQLALVWGVYPHLAPDPQDTDDMVRIALREVKALGLAQVGDRVVIAAGVPFGVRGTTNLIRVERVG | soluble
MHIDNIENLSDREFDYIVVGGGSAGAAVAARLSEDPAVSVALVEAGPDDRGVPEVLQLDRWMELLESGYDWDYPIEPQENGNSFMRHARAKVMGGCSSHNSCIAFWAPREDLDEWEAKYGATGWNAEAAWPLYKRLETNEDAGPDAPHHGDSGPVHLMNVPPKDPTGVALLDACEQAGIPRAKFNTGTTVVNGANFFQINRRADGTRSSSSVSYIHPIVEQENFTLLTGLRARQLVFDADRRCTGVDIVDSAFGHTHRLTARNEVVLSTGAIDTPKLLMLSGIGPAAHLAEHGIEVLVDSPGVGEHLQDHPEGVVQFEAKQPMVAESTQWWEIGIFTPTEDGLDRPDLMMHYGSVPFDMNTLRHGYPTTENGFSLTPNVTHARSRGTVRLRSRDFRDKPMVDPRYFTDPEGHDMRVMVAGIRKAREIAAQPAMAEWTGRELSPGVEAQTDEELQDYIRKTHNTAYHPVGTVRMGAVEDEMSPLDPELRVKGVTGLRVADASVMPEHVTVNPNITVMMIGERCADLIRSARAGETTTADAELSAALA | soluble
MGHHHHHHSHDTISHQLEWRSLKSQETTGAGEDVEKQEQLLHCWWDCKLVQPLRKSVWQFLRNLELEIPFDPAIPLLGRYPKDYKSCCYKDTCTRMFIAALFTIAKTWNQPKCPTTIDWIKKMWHIYTMEYYAAIKNDEFMSFVGTWMKLETIILSKLSQGQ | not soluble
MSLTWFDLVTPKSVMFFKPFIEELKRRDREVLVTAREGEGYSEVVELLNLYKIPFFNRGGFGGAKLCDKLKASIHRQLELMEFIEQHSIKRLVCLCSVDANRVAFGLGIPIVNFYDIPLSDYKTDFRRALPQARLTLPLSNKAFRPFMVPEEIFFRFGLEHDQIFEYGFLDVVAWLRDFQPSREFYEKVLKDYGLDTSLPTIVVREEEYKASYVMKKYPILYEGLKVLKERLRANILVIPRYEPEAVAELLPFAKVLKEKIVIQHILAYCDLFIGGGGTLNSEACFFGTPTISTRSFVSHYDKFLMDLALMDKVDSIEELIIKAERIIGNRNGYAKQIFDRMEFDVGSMVDEILKEKEGAEGHHHHHH | soluble
MGSDKIHHHHHHMSEKLWEKGYKVNEEVEKFTVGDDYITDMKIIEYDIKASIVHSRMLHKIGLLSAEEQKKIEEALSELLNLVKEGKFQIKPEEEDCHTAIENFLVKKLGEIGKKIHTARSRNDQVLTALRLMYKEELKEIENLIRELQKSLERFIEKFGDVKFPGYTHTRKAMPTDFATWAGALKDALEDDLKLLKTAYEIVDQSPLGTGAGYGVPIDIDREFTAKELGFSKVQWNPIYTQNSRGKFEYLILHTLSQISYDLNRFASDIIFFSLPEIGYLKLPKELCTGSSIMPHKINPDPLELVRAHHHTIVSKMLMAVTLPSNLIFGYHRDFQLLKKPVIEAFEVVKNIVRIMKIIFDHLEVDKERSESSITEEVLATHRVYELVKQGVPFRDAYRMVAEKYGREKD | not soluble
MFTKSHLALVIGAVLAAPAVANVQTDEHLVVEGREFGYKADTNSTAMRMEMTQLETPGQVAVIDETVIDEQRASTLGEVLRNDASVSAGGTSRNRERFSLRGFELSSSDGFLRDGRQHWSHYRQPIEL | not soluble
MSLGSIKDNLSEIRNKIDKAAKKVDRDSKEITLLAVTKTVDVDLVNEAMREGITSVGENKPQELARKYDIIGDKLNWHLIGTLQTNKVKYIIDKVCMIHSLDRIALCEEIQKRAEQINREIDCLVQVNISKEESKHGLDREEVVDFVKEVSEKYKNIKIKGLMTMAPFIEDEDEIRGVFKGLKDLSKQIKELNIPNVGMDVLSMGMSHDYEIAIEEGATIVRVGTSIFGERNYNKEGHHHHHH | soluble
MGLEKVVLTGLGAGLIAVAARGQNPLATALKIEQNDEGETVVRDAVTIGKPAEQLYAVWRDLPGLPLLMTHLRSVEVLDDKRSRWTVEAPAPLGTVSWEAELTADEPGKRIAWRSLPGARIENSGEVLFRPAPGARGTEVVVRLTYRPPGGSAGAVIARMFNQEPSQQLRDDLMRFKREQELGLEHHHHHH | soluble
SLDSIELMAKIHASARWSEAALQILADETRRILKHEAGTRAGEDPEQLHQMRVGIRRLRSALRLFEPALKLPKPARRRSLSPLAAVLGSVRDLDVQMEMLRERYLGALPEGEQQALERLLAHLESLRTQARSAMLRYLDGLDYEQFKSAYTEFLESPKFRRGADESLYHLLPAFLREALSTLWAHPGWEEPDVETMHDLRIAVKRVRYNLEFFLGCYGKAVRSLHGELKRIQEELGIIHDCDVLLGQLHTEPLGPATPWQQPFSRLTALVRNERRNAVRRFRRLKTRLLSEDMRNSLAVWVSWPGTADD | soluble
MGSDKIHHHHHHMLARGKTNLKIEEIRMHKHHEIHRVKPLMPALCRIRQGKKVINWETHTLTVDNNQIILFPCGYEFYIENYPEAGLYLAEMLYLPIDLIESFQKLYTVTDQIRNKTSFFLPQNPELIYCWEQLKTSVSRGFSTKIQEHLAMGVLLSLGVNHVNHLLLSYSKQSLISRCYNLLLSEPGTKWTANKVARYLYISVSTLHRRLASEGVSFQSILDDVRLNNALSAIQTTVKPISEIARENGYKCPSRFTERFHNRFNITPREIRKASRE | not soluble
MGSDKIHHHHHHADFVSDYIWRGAYQNSGFSVQPTLGLSYGNLSLSAWGSQSLTKTDGAQEFDINLSYTIGGLGITVTDYWWNGITMPYGDYKHDHHFEGTLAYNFGENFPLTLSWSTMFAGGDDNKDGDRAYSTYINASYNIACPAEITLTPSVGFTPWKGMYDADGAAFTDIALKASKNINITDHFSLPLFVQAIVSPSFDKTYLIAGLSIGF | not soluble
MSLTKLKKVMISVIAATLLLLAGCGSSAVVKTDAGSVTQDELYEAMKTTYGNEVVQQLTFKKILEDKYTVTEKEVNAEYKKYEEQYGDSFESTLSSNNLTKTSFKENLEYNLLVQKATEANMNVSESKLKTYYKTWEPDITVRHILVDDEATAKEIQTKLKNGEKFTDLAKEYSTDTATSTNGGLLDPFGPGEMDETFEKAAYALENKDDVSGIVKSTYGYHLIQLVKKTEKGTYAKEKANVKAAYIESQLTTENMTAALKKELKAANIDIKDSDLKDAFADYTEGHHHHHH | soluble
MAHHHHHHMDDERTTAAGRITSTNVREEEPSITVPCELDTHIEQHERRKRGRVWTAEEQAAYWREKKEKQRQRKKAAAAERREMQQKEWEALSQSERERRRAEAIAVHEKRRGAEMRLQQLCQEHLADAKLPVLVFDLSFAWCMNASDCRSTVSQVKLSYSALRRHAFPLRPVITSIGGSADGEMACAHSDVLQSLCTFNGFSRYPLPVHENHWSSLYDLQRVVFLTADAEVVLERIEQGTVYIVGAFVDHNARKFLTRDAAIRYGVRMARLPIDESIKVGNICKVLTVNHVVDVLCRYTECGDWSTAFDVLPTRRTVSRRERRTNAHISMSSNTVFGECDSVDTDETGGTTRVASGQAD | not soluble
MGSDKIHHHHHHMIMNNHRMLPDQDAWEPWSPAELSRRLSGISRPWCIVGGWALDLWHGSTMREHDDLEFTVLREDLEIFRRELSEMEFYTVNDGVLERLPPDRQPASEIFQIWCFDRTAKCWRVDMMIEPGTDDTWAYKRNPEITRPRTDMVALTADGIPYLNPSAVLLFKAKHRRPKDEQDFVNAHPKLLLSERRWLRNCLELLHPGHEWAQAL | not soluble
RRNLGGRLYLVTYGKAAALHLDPVEKKPLYHFHPGEGILSVGTVGCNLFCAFCQNWQISQFREFRVSPEGRLDRPIGEDWPPKRLVAEAEALGVRLLAYTYNEPAVWIEYAHDTARLAKARGMKNVFVTSGFETKEAWDYIRPHLDAANVDLKGFTEKFYREVCGARLKPVLESLGHLVASGVWVEVTTLLLEGYNDSDEEVRAMARFLKGLSPDIPWHLTAAHPDYRMLDLRSTRHATLVRAHAIAK | not soluble
MADNINESEIIERLNSAPSVRGFFIATVDVFNESIDGLIQRIFRKDNFAVQSVVGPLLQDSGPLGDLSVRLKLLFGLGVLPDDIYHDIEDIIKLKNHLNSDASDYEFTDPNILEPIKKLHLVKKMGMVQLEVNEPDDDIDLEFYQLQLQRQQQIIKSGLSLAIVEICNELGKDSPF | not soluble
MGSDKIHHHHHHMGMSSDLIKPRRPSTSGCAIHCHDCSMEALCIPFTLNNDELDKLDSIIERKKPIQKGDLIFKSGDVLKSLYAIRSGTIKSYTITEQGDEQITGFHLAGDVIGFDGIHAQRHQSFAQALETSMVCEIPYDTLDDLSGSMPKLRQQIMRLMSNEIMSDQEMILLLSKKNAEERLAAFINNLANRFGNRGFSPHEFRLTMTRGDIGNYLGLTVETISRLLGRFQKSGLIEVKGKYISIIDHSALSTLAGNARIAT | not soluble
